Assay results published in the supplement of paper PMC9233669.
This sample holds only a part of the variants without activity.

Columns and labels:
biotinyl-Phe-oxazolone = test: self-aminoacylation, catalytic enhancement (BFO) (fold over background); higher = more active; k-Seq, kA / k0A0; sequences stand for … in GGGAAUGGAUCCACAUCUACGAAUUC…UUCACUGCAGACUUGACGAAGCUG
Outline: (§1)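 Mutagenized RNA pools with a 21-nt variable region (0.43 μM) were reacted with each biotinyl-aminoacyl-oxazolone at 2–1250 μM for 90 minutes at room temperature, in 50 μL HEPES/NaCl/KCl/MgCl2/CaCl2 buffer containing 5% acetonitrile at pH 6.9–7.0. RNA captured on streptavidin was quantified by triplicate qPCR and by Illumina sequencing. The fraction reacted for each sequence was fit to a pseudo-first-order model with bootstrapping, and catalytic enhancement is the median kA divided by the uncatalyzed rate, taken as the low-activity peak of a bimodal Gaussian fit.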

biotinyl-Ile-oxazolone = test: self-aminoacylation, catalytic enhancement (BIO) (fold over background); higher = more active; k-Seq, kA / k0A0; sequences stand for … in GGGAAUGGAUCCACAUCUACGAAUUC…UUCACUGCAGACUUGACGAAGCUG
Outline: as §1

biotinyl-Met-oxazolone = test: self-aminoacylation, catalytic enhancement (BMO) (fold over background); higher = more active; k-Seq, kA / k0A0; sequences stand for … in GGGAAUGGAUCCACAUCUACGAAUUC…UUCACUGCAGACUUGACGAAGCUG
Outline: as §1

biotinyl-Val-oxazolone = test: self-aminoacylation, catalytic enhancement (BVO) (fold over background); higher = more active; k-Seq, kA / k0A0; sequences stand for … in GGGAAUGGAUCCACAUCUACGAAUUC…UUCACUGCAGACUUGACGAAGCUG
Outline: as §1

biotinyl-Leu-oxazolone = test: self-aminoacylation, catalytic enhancement (BLO) (fold over background); higher = more active; k-Seq, kA / k0A0; sequences stand for … in GGGAAUGGAUCCACAUCUACGAAUUC…UUCACUGCAGACUUGACGAAGCUG
Outline: as §1

biotinyl-Trp-oxazolone = test: self-aminoacylation, catalytic enhancement (BWO) (fold over background); higher = more active; k-Seq, kA / k0A0; sequences stand for … in GGGAAUGGAUCCACAUCUACGAAUUC…UUCACUGCAGACUUGACGAAGCUG
Outline: as §1

Sequence | self-aminoacylation (biotinyl-Phe-oxazolone) | self-aminoacylation (biotinyl-Ile-oxazolone) | self-aminoacylation (biotinyl-Met-oxazolone) | self-aminoacylation (biotinyl-Val-oxazolone) | self-aminoacylation (biotinyl-Leu-oxazolone) | self-aminoacylation (biotinyl-Trp-oxazolone)
AAGUUUGCUCAUAGGCGCAAG [Fam3.1 aminoacylation ribozyme variant] | 0.996 | 0.735 | 0.839 | 0.852 | 0.577 | 0.876
CUACUUCAAAGAAUCGGACUG [Fam1A.1 aminoacylation ribozyme variant] | 1.29 | 0.992 | 0.91 | 0.808 | 0.818 | 0.932
AGUACCCUGAUCAUCGAGUGA [Fam2.1 aminoacylation ribozyme variant] | 26.6 | 3.22 | 6.82 | 3.5 | 6.72 | 8.64
CAACACUUCAAGCAAUCUGUC [Fam1B.1 aminoacylation ribozyme variant] | 0.588 | 0.399 | 0.396 | 0.502 | 0.362 | 0.398
CUACUUCAGACAAUCGGUCUU [Fam1A.1 aminoacylation ribozyme variant] | 1.11 | 0.967 | 0.904 | 0.961 | 0.919 | 0.663
CCACAUUUUAAGCAAUCGGUC [Fam1B.1 aminoacylation ribozyme variant] | 1.19 | 1.33 | 0.901 | 1.24 | 1.29 | 0.864
CUUUUUCAAACAAUCGGUCUG [Fam1A.1 aminoacylation ribozyme variant] | 6.81 | 0.86 | 0.67 | 0.815 | 0.89 | 3.86
CCACGCUUCAAGCAAUCGGUC [Fam1B.1 aminoacylation ribozyme variant] | 76.9 | 1.2 | 1.37 | 1.54 | 2.11 | 39.9
CCACACUUAAAGCAACCGGUC [Fam1B.1 aminoacylation ribozyme variant] | 0.756 | 1.08 | 1.2 | 1.16 | 0.876 | 0.943
AUUACGCUGGUCAUCCAGUGA [Fam2.1 aminoacylation ribozyme variant] | 12.8 | 2.27 | 3.63 | 1.96 | 3.99 | 4.31
ACUACCCUGGUGAUCGAGUGA [Fam2.1 aminoacylation ribozyme variant] | 28 | 4.03 | 6.46 | 3.6 | 7.61 | 9.48
AUUACCCUGGCCAUCGAGCGA [Fam2.1 aminoacylation ribozyme variant] | 9.68 | 2.02 | 1.61 | 1.93 | 1.66 | 2.39
ACGUUUGCGAAUAGUCGCAAG [Fam3.1 aminoacylation ribozyme variant] | 3.56 | 1.97 | 1.58 | 1.45 | 1.85 | 2.17
AGUCACCUUGGUCAUCGGGUG [Fam2.2 aminoacylation ribozyme variant] | 49.8 | 4.89 | 5.4 | 4.85 | 6.96 | 5.71
AUUACCCUGGACAUCGUGUGA [Fam2.1 aminoacylation ribozyme variant] | 10.9 | 1.39 | 2.41 | 1.44 | 2.45 | 2.5
AAGGUUGCUCAUAGUCGCAAG [Fam3.1 aminoacylation ribozyme variant] | 4.12 | 1.46 | 1.57 | 1.25 | 1.63 | 1.5
CCACAUUUCCAGCAAUCGGUC [Fam1B.1 aminoacylation ribozyme variant] | 1.26 | 2.12 | 1.64 | 2.04 | 2.15 | 1.23
AUAACCCUGGUCAUAGAGUGA [Fam2.1 aminoacylation ribozyme variant] | 49 | 3.62 | 8.34 | 3.61 | 8.65 | 9.78
AUUCCCCUAGUUCAUCGGGUG [Fam2.2 aminoacylation ribozyme variant] | 56.5 | 6.72 | 7.78 | 6.85 | 10.1 | 10.2
AUAACCCUAGUCAUCGAGUGA [Fam2.1 aminoacylation ribozyme variant] | 5.43 | 2.68 | 5.44 | 2.97 | 5.25 | 6.64
CCACAGUUCAAGCACUCGGUC [Fam1B.1 aminoacylation ribozyme variant] | 3.53 | 1.16 | 1.3 | 1.62 | 1.73 | 0.897
CUAAUUCAACCAAUCGGUCUG [Fam1A.1 aminoacylation ribozyme variant] | 2.11 | 0.66 | 0.63 | 0.741 | 0.676 | 1.19
AUUCACCUCGGUCAUAGGGUG [Fam2.2 aminoacylation ribozyme variant] | 5.66 | 1.11 | 1.41 | 1.19 | 1.76 | 1.43
CUACAUCAAACAAUCGGACUG [Fam1A.1 aminoacylation ribozyme variant] | 1.11 | 1.1 | 0.804 | 0.974 | 0.586 | 0.749
AUUCACCUAGGUCAUCGAGGG [Fam2.2 aminoacylation ribozyme variant] | 3.09 | 1.58 | 2.19 | 1.43 | 2.89 | 1.1
AAGUUUGCUAAUAGUUGUAAG [Fam3.1 aminoacylation ribozyme variant] | 2.23 | 1.29 | 1.48 | 1.28 | 1.12 | 1.55
